The supplement of paper PMC6757056
± gives the standard deviation of the averaged measurements.

B1: library; a variant is named by its letters at N, in order (parent)
chain: GCUGUCACCGGUGCUUGGUACGUUAUAUUCAGCCGGUCUGAUGAGUCUNNNNNNAGACGAAACAGC

How the values were obtained:
[1] = variants of: B1; test: normalized RNA/DNA level without ligand (relative to sTRSVctl = 100) (log10 (% of sTRSVctl)); HEK293T overexpressing SLC46A1; higher = less ribozyme self-cleavage, higher mRNA level; details: without (6R,S)-folinic acid; ligand present: no
Outline: (§1)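 Ribozyme switch library plasmids linked to reporters were introduced into HEK293T cells at 4 µg per 6-well well, with ligand, if any, added 1 h before. Total RNA was extracted with EDTA 72 h later, reverse-transcribed, amplified, barcoded and sequenced. RNA level was computed from RNA over DNA reads relative to a spiked-in non-cleaving sequence or the top sequences, then scaled and log-transformed. The top set was 25 sequences, values were ×100 and log10, and the cutoff was ≥100 DNA reads.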

[2] = variants of: B1; test: normalized RNA/DNA level with ligand (relative to sTRSVctl = 100) (log10 (% of sTRSVctl)); HEK293T overexpressing SLC46A1; ligand concentration (+) RNA-Seq: 6 mM; higher = less ribozyme self-cleavage, higher mRNA level; details: with (6R,S)-folinic acid; ligand present: yes
Outline: as §1

Variant	normalized RNA/DNA level without ligand (log10) [1]	normalized RNA/DNA level with ligand (log10) [2]
UUAUUC	2.012 ± 0.0098	2.02 ± 0.079
UUAUUA	1.975 ± 0.0052	1.99 ± 0.02
UGUUUA	1.978 ± 0.0041	2.055 ± 0.0056
UGUUUC	2.063 ± 0.0072	2.04 ± 0.027
AUAGGA	1.91 ± 0.022	1.99 ± 0.053
GGUUUA	2.009 ± 0.018	1.98 ± 0.03
GGUUUC	2.021 ± 0.011	1.9966 ± 0.0012
GGUUUU	2 ± 0.021	1.99 ± 0.033
CGUUUU	2.032 ± 0.0078	2.037 ± 0.0095
CGUUUC	2.06 ± 0.047	2.06 ± 0.06
CGUUUA	1.99 ± 0.03	2.01 ± 0.034
CGUUUG	2 ± 0.029	1.986 ± 0.0034
AUCAAC	2.0326 ± 0.00048	2.01 ± 0.033
AUCAAA	2.002 ± 0.0041	2 ± 0.04
AUCAAG	1.93 ± 0.021	2 ± 0.026
AUCAAU	1.989 ± 0.0025	2 ± 0.053
GUAGGU	1.998 ± 0.013	2.04 ± 0.03
GUAGGC	1.881 ± 0.011	2.0344 ± 0.00079
GUAGGA	1.946 ± 0.0025	2 ± 0.047
CUAGCC	2.024 ± 0.015	1.98 ± 0.036
CUAGCA	2.038 ± 0.0039	2.041 ± 0.0037
CUAGCU	2.033 ± 0.0023	1.993 ± 0.014
CUAGCG	2.0229 ± 0.0015	2.05 ± 0.042
CUAGGA	2.016 ± 0.0053	2.01 ± 0.047

Variant	normalized RNA/DNA level without ligand (log10) [1]	normalized RNA/DNA level with ligand (log10) [2]
CUAGGG	1.882 ± 0.017	2.02 ± 0.028
UUAGUU	1.972 ± 0.0056	1.97 ± 0.052
UUAGUC	2.031 ± 0.0018	2.024 ± 0.0089
UUAGUG	1.759 ± 0.012	1.962 ± 0.012
UUAGUA	1.9501 ± 0.0015	1.98 ± 0.026
AUAUCG	1.962 ± 0.0099	2.03 ± 0.035
AUAUCA	2.0081 ± 0.00069	2.04 ± 0.036
AUAUCU	2.0373 ± 0.00034	2.05 ± 0.04
UUAUCA	1.999 ± 0.019	2.01 ± 0.021
UUAUCC	2.04 ± 0.016	2.01 ± 0.032
UUAUCG	1.885 ± 0.0047	1.97 ± 0.041
GGUUGU	2.023 ± 0.0028	2.04 ± 0.051
GGUUGG	2.042 ± 0.016	2.03 ± 0.031
AUCAGA	2.047 ± 0.0058	2.04 ± 0.031
AUCAGC	2.065 ± 0.016	2.02 ± 0.031
AUCAGG	1.96 ± 0.023	2.04 ± 0.041
GUAAGA	2.005 ± 0.0094	1.99 ± 0.02
GUAAGU	1.939 ± 0.0089	2.02 ± 0.06
CUAGAC	1.98 ± 0.017	1.986 ± 0.015
CUAGAG	1.92 ± 0.035	2.02 ± 0.042
CUAGAA	1.992 ± 0.016	2.018 ± 0.016
CUAAGC	2.02 ± 0.026	2.024 ± 0.018
CUAAGG	1.96 ± 0.0065	2.002 ± 0.014
CUAAGA	2.017 ± 0.0036	2 ± 0.04

Variant	normalized RNA/DNA level without ligand (log10) [1]	normalized RNA/DNA level with ligand (log10) [2]
GUAACA	2.016 ± 0.0052	1.98 ± 0.042
GUAACG	1.997 ± 0.0059	2 ± 0.039
GUAACU	2.03 ± 0.016	2.03 ± 0.036
AUCAUA	1.98 ± 0.02	1.99 ± 0.046
UUAGGU	1.942 ± 0.0098	1.971 ± 0.016
UUACAU	1.96 ± 0.025	1.98 ± 0.028
UUACAA	1.963 ± 0.0022	2.01 ± 0.028
UUACAC	2.003 ± 0.0021	1.99 ± 0.038
UUACAG	1.898 ± 0.017	1.99 ± 0.027
AUAAGA	1.971 ± 0.0094	2.01 ± 0.034
GGUUCG	2.0485 ± 5.4e-05	2.06 ± 0.048
GGUUCC	2.028 ± 0.018	2.03 ± 0.037
GGUUCA	1.99 ± 0.02	2 ± 0.036
GGUUCU	2.0626 ± 0.0019	2.05 ± 0.049
CUAUGA	2.02 ± 0.013	2.02 ± 0.027
CUAUGC	2.036 ± 0.0043	2.036 ± 0.0099
CUAUGG	1.97 ± 0.03	2.039 ± 0.014
UUACGG	2.018 ± 0.0069	2.049 ± 0.016
UUACGC	1.995 ± 0.011	1.995 ± 0.018
UUACGA	2.013 ± 0.011	2.04 ± 0.035
CUAACA	2.026 ± 0.012	2.03 ± 0.043
CUAACU	2.007 ± 0.0098	2 ± 0.035
CUAACC	2.007 ± 0.0068	1.98 ± 0.073
CUAACG	2.02 ± 0.018	1.99 ± 0.053

Variant	normalized RNA/DNA level without ligand (log10) [1]	normalized RNA/DNA level with ligand (log10) [2]
AUACAC	2.01 ± 0.026	2.04 ± 0.039
GUAGUU	2.003 ± 0.0023	2.02 ± 0.021
GUAGUA	1.9662 ± 0.0006	1.98 ± 0.025
GUAGUC	2.038 ± 0.0078	2.03 ± 0.032
AGUUGG	1.87 ± 0.022	1.994 ± 0.015
CUCAGC	2.06 ± 0.0071	2.032 ± 0.0023
CUCAGU	2.024 ± 0.015	2.017 ± 0.015
CUCAGG	1.99 ± 0.021	2.03 ± 0.03
CUCAGA	2.048 ± 0.019	2.03 ± 0.07
GUACCG	2.088 ± 0.0044	2.06 ± 0.014
GUACCA	2.0976 ± 0.0018	2.038 ± 0.013
GUACCC	2.02 ± 0.03	2.03 ± 0.06
GUACCU	2.086 ± 0.0075	2.06 ± 0.051
CUCAAC	2.07 ± 0.029	2.045 ± 0.0073
CUCAAG	1.96 ± 0.024	2.01 ± 0.023
CUCAAA	2 ± 0.016	1.97 ± 0.032
AUAACG	1.9455 ± 0.0011	2.02 ± 0.033
AUAGAA	1.937 ± 0.0051	1.98 ± 0.028
CUAUUA	2.017 ± 0.013	2.009 ± 0.0054
CUAUUC	2.06 ± 0.024	2.008 ± 0.0052
UUAGAU	1.946 ± 0.012	1.99 ± 0.021
UUAGAC	2 ± 0.01	2.01 ± 0.041
UUAAGU	1.996 ± 0.014	2.024 ± 0.0034
UUAAGC	2.022 ± 0.0089	2.027 ± 0.016

Variant	normalized RNA/DNA level without ligand (log10) [1]	normalized RNA/DNA level with ligand (log10) [2]
UUAAUU	2.011 ± 0.0048	2.01 ± 0.042
UUAAUC	2.0392 ± 0.0017	2.03 ± 0.034
AUAGCU	2 ± 0.016	2 ± 0.046
AUCACU	2.029 ± 0.008	2.01 ± 0.03
AUCACG	1.969 ± 0.014	2.01 ± 0.043
AUCACC	2.057 ± 0.0026	2.04 ± 0.053
CGUUGU	2.004 ± 0.0073	2 ± 0.047
CGUUGA	2.013 ± 0.013	2.016 ± 0.0024
CGUUGG	1.931 ± 0.019	2.0206 ± 0.0013
AGUUCU	2.02 ± 0.025	2.014 ± 0.011
AGUUCC	2.06 ± 0.047	2.04 ± 0.059
AGUUCG	1.953 ± 0.015	2 ± 0.025
UGUUGC	1.98 ± 0.024	2.059 ± 0.0084
UGUUGU	1.9049 ± 9.7e-05	2 ± 0.027
GUAUGU	1.937 ± 0.015	1.995 ± 0.013
GUAUGG	1.921 ± 0.015	2.02 ± 0.035
GUAUGA	1.987 ± 0.0024	2.028 ± 0.017
GUCAGU	2.03 ± 0.026	2.04 ± 0.038
GUCAGA	2.0258 ± 0.00039	2.027 ± 0.01
GUCAGC	1.979 ± 0.018	2.02 ± 0.033
